Assay results published in publication PMC9163697, “Mechanistic insights into the activation of the IKK kinase complex by the Kaposi’s sarcoma herpes virus oncoprotein vFLIP” (The Journal of Biological Chemistry, 2022).

Tests used:
[1] = molecular target: T1, WT vFLIP(1–177) (Kaposi's sarcoma-associated herpes …, UniProt Q76RF1 1-177); assay: native gel or EMSA; blue native gel (4–20%), 8–10 μg of purified complexes of IKKγ(150–272) with vFLIP or complexes assembled from the concentrated proteins; bands excised and analysed by SDS-PAGE; conditions: both partners purified
T1 construct: vFLIP of the Kaposi's sarcoma-associated herpes virus (KSHV), residues 1-177; also called recombinant vFLIP; source: mutants said to be expressed in E. coli

[2] = molecular target: the molecule itself; assay: native MS; proteins and complexes exchanged into 200 mM ammonium acetate pH 8.5, 3.2 μM, nanoelectrospray, Synapt QToF; collision-induced dissociation of selected species
[3] = molecular target: T1, WT vFLIP(1–177); assay: as above; conditions: both partners purified

B1: IKKγ(150–272) (domain or fragment, UniProt Q9Y6K9 150-272, looked up)
chain: LGELQESQSRLEAATKECQALEGRARAASEQARQLESEREALQQQHSVQVDQLRMQGQSVEAALRMERQAASEEKRKLAQLQVAYHQLFQEYDNHIKSSVVGSERKRGMQLEDLKQQLQQAEE
notes: IKKγ (Nemo), regulatory subunit of the IKK kinase complex, residues 150-272; also called Nemo; WT IKKγ
B1 was tested, and the “stoichiometry N” value [1] was 1 vFLIP per IKKγ, the binding result [2] was “binds” and the “stoichiometry N” value [3] was 0.5 vFLIP per IKKγ.
